Measurements taken from patent US20250066490A1 (PROFOUNDBIO US, published 2025).

Experiments:
[1] = biological target: T1, human CD70 expressed on the cell surface of tumor cell lines (human, UniProt P32970 1-193); assay: flow cytometry on 786-O cells
T1 construct: whole, on cells
T1 sequence (looked up): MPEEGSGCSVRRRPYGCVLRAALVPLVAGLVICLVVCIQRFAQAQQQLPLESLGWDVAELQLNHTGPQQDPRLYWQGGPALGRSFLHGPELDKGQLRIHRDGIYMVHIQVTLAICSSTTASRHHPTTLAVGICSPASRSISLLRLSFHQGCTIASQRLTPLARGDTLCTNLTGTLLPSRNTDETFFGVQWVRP
Protocol: The lead antibodies were tested for binding to renal carcinoma cells and glioblastoma cells expressing CD70 on the cell surface by flow cytometry. […] U251 cells were cultured with MEM medium containing of 10% FBS and 1% NEAA+1 mM sodium pyruvate. DBTRG-05MG cells were cultured with DMEM medium (Gibco, Cat #C11995500BT) containing of 10% FBS. Each of the lead antibodies and the controls were incubated for 30 mins with the different cell lines (3×10⁵ cells per well) in 0.2 ml FACS buffer (1×PBS with 0.1% BSA) at 4° C. Then, the cells were pelleted, washed, and incubated at 4° C. for 30 mins with 100 μl of 1:200 diluted PE-conjugated anti human Fc (Abcam, Ab98596) in FACS buffer. The cells were pelleted again, washed with PBS, resuspended in FACS buffer and analyzed by flow cytometer (Beckman, CytoFLEX).
Antibodies 2H8 and 2D2 had slightly higher binding ability to the cell lines than that of antibody 69A7.

[2] = biological target: T2, CD70 ECD (antigen immobilized on the CM5 chip) (UniProt P32970 39-193); assay: SPR (Biacore T200), CD70 ECD on CM5 chip
T2 construct: extracellular domain; also called CD70 antigen
T2 sequence (looked up): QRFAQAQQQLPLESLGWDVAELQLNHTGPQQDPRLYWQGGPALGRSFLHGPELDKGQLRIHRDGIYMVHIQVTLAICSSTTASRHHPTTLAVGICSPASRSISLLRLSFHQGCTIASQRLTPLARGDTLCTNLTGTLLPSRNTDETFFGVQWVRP
Protocol: The immobilization of antigen CD70 ECD was performed at 25° C. with HBS-EP as the running buffer. Sensor chip surface of flow cells 1, 4 were activated by freshly mixed 50 mmol/L N-Hydroxy succinimide (NHS) and 200 mmol/L 1-ethyl-3-(3-dimethylaminopropyl) carbodiimide hydrochloride (EDC) for 420s (10 μL/min). Afterwards, CD70 antigen diluted in 10 mmol/L NaAC (pH 4.5) was injected into flow cell 4 to achieve conjugation of the appropriate Response Unit, while flow cell 1 was set as a blank. After the amine coupling reaction, the remaining active coupling sites on chip surface were blocked by 420s injection of 1 mol/L ethanolamine hydrochloride.
The assay was performed at 25° C. and the running buffer was HBS-EP. Diluted antibodies were injected over the surface of flow cells 1 and 4 during the association phase, followed by injecting running buffer as the dissociation phase. All the data were processed using Biacore T200 Evaluation software version 3.1. Flow cell 1 and a blank injection of buffer in each cycle were used as a double reference for Response Units subtraction. Kinetic data of the interaction between the antibodies and CD70 antigen were obtained through affinity measurement.

EC50 [1]: 2.69 nM
fold greater affinity than parent antibody 69A7 [2]: 22 fold
B1: 2E7, full IgG (antibody, V domains shown)
VH: QVQLQESGPGLVKPSETLSLTCTVSGGSVSSDYYYWSWIRQPPGKGLEWLGYIYYSGSTNYNPSLKSRVTISVDTSKNQFSLKLRSVTTADTAVYYCARGDGDFLGVCFDYWGQGTLVTVSS
VL: EIVLTQSPATLSLSPGERATLSCRASQSVSSYLAWYQQKPGQAPRLLIFDASNRATGIPARFSGSGSGTDFTLTISSLEPEDFAVYYCQQRSNWPLTFGGGTKVEIK
